# Experimental data from IntAct's records for PubMed 16096059.
# B1: Tethering factor for nuclear proteasome cut8 (Schizosaccharomyces pombe (strain ATCC 38366 / 972)), P38937 (parent)
# chain: METLSYSQIKKRKADFDEDISKRARQLPVGEQLPLSRLLQYSDKQQLFTILLQCVEKHPDLARDIRGILPAPSMDTCVETLRKLLINLNDSFPYGGDKRGDYAFNRIREKYMAVLHALNDMVPCYLPPYSTCFEKNITFLDAATNVVHELPEFHNPNHNVYKSQAYYELTGAWLVVLRQLEDRPVVPLLPLEELEEHNKTSQNRMEEALNYLKQLQKNEPLVHERSHTFQQTNPQNNFHRHTNSMNIGNDNGMGWHSMHQYI
# partner: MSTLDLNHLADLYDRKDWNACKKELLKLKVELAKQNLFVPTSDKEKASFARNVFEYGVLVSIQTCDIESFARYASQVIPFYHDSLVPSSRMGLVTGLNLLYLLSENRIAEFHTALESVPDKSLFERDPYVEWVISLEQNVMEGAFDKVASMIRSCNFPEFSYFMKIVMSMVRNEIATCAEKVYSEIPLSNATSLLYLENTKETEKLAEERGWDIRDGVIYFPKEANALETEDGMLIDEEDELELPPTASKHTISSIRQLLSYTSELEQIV
# B2: Tethering factor for nuclear proteasome cut8 (Schizosaccharomyces pombe (strain ATCC 38366 / 972)), P38937 (parent)
# chain: B1 chain
# partner: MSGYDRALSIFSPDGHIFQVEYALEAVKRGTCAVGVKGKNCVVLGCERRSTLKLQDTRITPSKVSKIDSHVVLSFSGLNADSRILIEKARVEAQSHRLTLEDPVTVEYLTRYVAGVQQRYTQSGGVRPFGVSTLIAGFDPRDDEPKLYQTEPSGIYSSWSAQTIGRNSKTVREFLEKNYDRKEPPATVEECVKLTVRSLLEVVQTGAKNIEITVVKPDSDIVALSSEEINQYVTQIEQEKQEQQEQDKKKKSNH
# Variants of: B1
# Details: with rpn12_schpo rpn12, P50524
row,Variant,effect of a mutation on the interaction
1,METLSYSQIRRRRADFDEDISRRARQLPVGEQLPLSRLLQYSDRQQLFTILLQCVERHPDLARDIRGILPAPSMDTCVETLRKLLINLNDSFPYGGDKRGDYAFNRIREKYMAVLHALNDMVPCYLPPYSTCFEKNITFLDAATNVVHELPEFHNPNHNVYKSQAYYELTGAWLVVLRQLEDRPVVPLLPLEELEEHNKTSQNRMEEALNYLKQLQKNEPLVHERSHTFQQTNPQNNFHRHTNSMNIGNDNGMGWHSMHQYI [K10R;K11R;K13R;K22R;K44R;K57R],decreasing interaction

# Variants of: B2
# Details: with psa4_yeast PRE6, P40303
row,Variant,effect of a mutation on the interaction
1,METLSYSQIRRRRADFDEDISRRARQLPVGEQLPLSRLLQYSDRQQLFTILLQCVERHPDLARDIRGILPAPSMDTCVETLRKLLINLNDSFPYGGDKRGDYAFNRIREKYMAVLHALNDMVPCYLPPYSTCFEKNITFLDAATNVVHELPEFHNPNHNVYKSQAYYELTGAWLVVLRQLEDRPVVPLLPLEELEEHNKTSQNRMEEALNYLKQLQKNEPLVHERSHTFQQTNPQNNFHRHTNSMNIGNDNGMGWHSMHQYI [K10R;K11R;K13R;K22R;K44R;K57R],decreasing interaction
